The data set is described as follows: label from the status in PepcDB records.
Regarding “MINPKVITRILANTDLKTKMRLAKVVPKLGKSDDVTKCMLCPNMCLHVCPVFDAERRLTVSPSVKSRLAYLGETEEAIYHCLPCDACKNACPMDISVNDNLRGYRGGERAMKAIERFEKSMRKVEVEPRDGKILYFPGCSTFESGLFDVTVEVLEKLGVDFAVKNLECCGMPYYELGLVDKFRGKISSLKDAAAKYEGVISNCPHCVHVMRENGIKAAHLLAVLKPVKIGGDVSYHDPCILARKLDIVEEPRRLLAEMGFVVHEPVFNGKDTHCCGYGGVYRFVVPEMAEKVAERRMEHFEHQIVTLCPSCRMALKAKDIVEIIAEGL”, the protein production result is “failed”.

With “MINSFKSVFLTIRYFIQNDLATQASALTYRTILSIVPMLAVLIGIAKGFGIQQVVHDWLKEYLPGHQQELEQALGYVENYLAQVQGGIFVGVGLIVLLYTVFSLIATVEDTFTDIWQTNKRRTWKRRVIDYMGAFFLLPILITASSGLTLMMTTIKGTYFSEYILFGPMLELILNLIPYVIIVLLFTGMYIVLPTVNVRFWPAFISGVLAGIVFQIFQALYISGILWISKYNAIYGSFAAVPLLLLWIQLSWTIVLFGAQLSFSIQNVRKFAFERDTTNVSRRYIDFITIVVASLIVKRFISDERRPHTADSLAEESKAPIRLVSEAIHRLLSIEAITEVNYAHDPKAEFFSPAIDPEKITVGFILDRIDRYGSEHFKVDNKVRFAPEWQAIEDSRQSLHIPPADTLLKNL”, the protein production result was “failed”.

Consider “MINTMTLDNGVRIITEKMSTVRSVSIGIWVGTGSRYESAEENGISHFLEHMFFKGTNTRSAQEIAEFFDSIGGQVNAFTSKEYTCYYAKVLDDHAGQAIDTLSDMFFHSTFQKEELEKERKVVFEEIKMVDDTPDDIVHDLLSSATYGKHSLGYPILGTVETLNSFNEGMLRHYMDRFYTGDYVVISVAGNVHDELIDKIKETFSQVKPTTYNYQGEKPMFLPNRIVRKKETEQAHLCLGYPGLPIGDKDVYALVLLNNVLGGSMSSRLFQDIREKRGLCYSVFSYHSSFRDSGMLTIYAGTGHDQLDDLVYSIQETTSALAEKGLTEKELENGKEQLKGSLMLSLESTNSRMSRNGKNELLLKKHRSLDEMIEQINAVQKQDVSRLAKILLSASPSISLINANGELPKALIH”, for which the protein production entry is “failed”.

For “MINVEQVFALDIGTRLVMGLIMEKAPGGYHIIARAQTEHRQRAMYDGQIHDIEEVAQAVQRVKEELEEKIKGKLHYVSVAAAGRALKTAVATAQKSELIPMIWEREDIFALEMEAVQQALREIQAEDEIIPYHCVGYSTIESLLEGQNLSSLSGQRGKEAQVKVIATFLPRTVIDGLTRVISKVGLEMRELTLEPIAAGRAAIPPDMRRMNLALVDVGAGTSDIALTKSGSFFAYGMVPMAGDEITERICQHFLVDFQTGEKIKRSLNTKTKVTFTDFLGMKTTVNKEEVLEQIQPVVLELAQKLADEILRLNQGNPHAIILIGGGSQTPLLAEVLSDLLELPRNRVGIQVRERIQGVSGEKSLKGPDAITPIGIGISTIEGEGLQYFSVHVNDLTVQIFELQLATVSDALLAAGITPRLLVGRPGSALTVELNGDIKVSKGQFSKPAQFFLNGEEVKLDHELKPGDKIQFIPAQDGENAQATFADLVPAIPEKKIKVNGESVVFTAQIFCNGRPVTRDGDVPDGAKITVFQNQTLKDLLHFLNDKQYSLSEIRYKINGEERVIPIHKEFYINQQKVALERMIKDGDDLVILVKEVYIKDLQLKPTPMVFYVNGQEVEYPPQIFRILSRGRVLSDQEKVVDGMELSVEGYDTMPLLSELLPYVNIPQDVPANARLSLKRNNQEAEFTTPLIPGDRIEIHWEQVASALLEHHHHHH”, the protein production entry was “not failed”.

Consider “MINYNKTQHLIESMVFERVVPGVNYAFIKNKQIFTSTTGFASIYPEVTQLSPFAEYDLASLTKVLATENVLLKLYDQGELNFTEPLKEFIPTFKDPKVRLYHLLTHTSGIRGWIPHRDELSHDELLNALINLPVTDEFEHKMRYADTNFILLGLVIKSIFGASVQEVATKEIFDQMPLINTTFTPNKSECVPTAIINDQVLQGIPHDPKARQLGLDCGSAGLFSNMRDLITFSQGYLGLKRNVLPYSQDTVSELFDDKTPKGVKPRSWGWDIRFDPKYHYPIILHTGFTGTLIILDRLKKSGLILLTNRVHPTGHNTIFLAMREKIIRSFLNENSKI”, for which the protein production entry is listed as “failed”.

As for “MINYPNLPNSALEITEQPEVKEITNELLKQLQNALNSNSLFSEQVELSLKGIVRILEVLLSLDFFKNANEIDSSLRNSIEWLNNAGESLKTKMKEYEGFFSDFNTSMRTNEQEVSATLNANTENIKSEIKKLENQLIETTTRLLTSYQIFLNNARDSANNQITANKTESLEALNQAKTSANNEITANQTQALTNINEAKENANNQITENKTQAITNINEARESATTQITTNKQEVLNSITQEKNQATSEITEAKKSAFNELLETLKPKFSGLFAGAYYIRNVIIFKADGRRKSRI”, the protein production result is “failed”.

For “MIPLSPDTLLAARLLAEGDLAGALRAAQAGLQAEPGNAPLWNLLGVCAARLGQAALAEQCWRQALSLDPATPDAHYNLGCLASERDDAAAADAHYRAELARDPDHCSSLGNLGNLLQDAGRLDEAETCFRRRLAIQPGAAAHYQLGRLLAERGRNGEAEAQLRACLDETPDDVEALQLLGRLLEERGEAGEAEAMLRRALESAPGHAAAGNNLGLLLMAQRRWDEAESPLRAAHAAQPGAALPNLASLLLATGRAAEAETLARQALAAEPGRADWLNLLGLALREQGRDEEAGLAWEQGLASVPDHRRLRQNLGYLQLARGDWAAGWAHHEARLESAVYPALPSPRWQGESLAGRRLLVLFEQGYGDAIQFSRYLNPLLEQGAARVVALCREPLSPLFSRQWPQVAWLAMGSGYPAAFPPHDCHVFSMSLPWALRDFEPRAETYLQADPALRQAWRARLPPGRNIGLVWRRPAPSTRSTIAVPCRGRRLCCRCWPIPAPTGFRCSRSRPMSNANGCSNMAWRSGVPNWGISPTARRCWRNWTAWWPWTPRWRTWRARWACLAGCCWPASMWTGAGDGMAKRRRGTTRFVCSAKGAARDGARRSPGCERRNAQRSRLPGCISRSRSDGCLMLRIRK”, the protein production result is listed as “failed”.

In the case of “MIPPELDMSLLLEFIGANEGTGHFKPLEKKFVRVSGEATIGHVEKFLRRKMGLDPACQVDIICGDHLLEQYQTLREIRRAIGDAAMQDGLLVLHYGLVVSP”, the protein production result is recorded as “not failed”.

On to “MIPTHLPILQVVVPLMAAPVCILLRRPGLCWAWALLIALTTLTMAVGLLAGVLTHGPSAYHLGDWSPPWGIELHVDLLSALVLVLVTATASLVIVYARASFAAEIDPGHHTLAYCLFLLCLTGLLGMAITGDAFNLFVFLEISSLSSYALVALGRDRRALYAAYHYLILGTVGATFYVIGIGFLYMMTGTLNMNDLAQRLPAVAHSRTAVAGVVFLGVGLSLKLALFPLHKWLPAAYSYAPSAVGAFLAATSTKVAFYVMVRLFLGVLAPAFSANLLPGPVSAREMVMVLALAAILSGSFSAIFQSDAKRLLAYSSVSQIGVMVLGLSLFSLDGVAGGLVHMLNHALIKASLFMALGCVFLRIGSVEIADMAGIGRRMPWTMAAFVIGGLSLIGIPGTAGFISKWQLAQSAIAEGWWLAVAALIASSLLAVVYVGKVIEAAYFRPSPAESPSGAPSAPQEAPAMMLAPLWIAALANIGFGLNTTWTLGLAKRAASALMGLPS”, for which the protein production entry is “failed”.

On to “MIPTSREERLKGRRHVRTSEDRSFLVLLAAISVAFGWLLWPFSGALLWATLLAIIFAPLYRLCLETFPEWRNLAALSTVLVVVVMVLIPVAVVIASLVEQGGELYQRVQTGEISFAHPLQQLKSALPDWAASVSDRLAGIDLSALKERLSSLVVPAGQQLAGHAINIGQLTVEFVASLLVMLYLLFFFLRDGDELNLRIRDALPLRRSHTAAILDAFTLSVRGTIKGIILVALIQGALGGLIFWLLGLTAPLLAGALMALLSLLPVLGSALVWVPVGLYLLVAGAVTKGMILLVFGTFVIGLADNFLRPVLVGQSIRMPSYVVLLATLGGLATFGANGFVIGPLVAAMFLTAWHIFVGSKEQQEVRN”, for which the protein production entry was “failed”.

As for “MIQAVFERAEDGELRSAEITGHAESGEYGLDVVCASVSTLAINFINSIEKFAGYEPILELNEDEGGYLMVEIPKDLPSHQREMTQLFFESFFLGMANLSENYSEFVQTRVITEN”, the protein production entry is listed as “not failed”.

In the case of “MIRDYKSKLEFLAFYDELTGLPNKNSLIRWLNLKVSQMDCIDTYLIFLEVRDLEKLNVTYGYDLVDELIIHISKRIKDIAGEGNKAFKIGFDRFAIICKSENISDFIERMLSQLLLPYNVNGNLIRVNFNIGAAQIENSNEAAANLMRRCDLALIKAKEEGLNEYVIFKPSIELEHHHHHH”, the protein production entry was “failed”.

“MIREAQRSELPALLELWLESTIWGHPFIKSSYWRDCIPLVRDAYLANAQNWVWEEDGKLLGFVSIMEGRFLAAMFVAPKAVRRGIGKALMQYVQQRHPHLMLEVYQKNQPAIDFYHAQGFHIVDCAWQDETQLPTWIMSWPVVQTL”: the protein production entry was “failed”.

On to “MIRFEIHGDNLTITDAIRNYIEEKVGKLERYFNNVPNAVAHVRVKTYSNSTTKIEVTIPLKDVTLRAEERHDDLYAGIDLITNKLERQVRKYKTRVNRKHRDRGDQDIFVAEVQESTTNNHADDIESENDIEIIRSKQFSLKPMDSEEAVLQMNLLGHDFFIFTDRETDGTSIVYRRKDGKYGLIETTELEHHHHHH”, for which the protein production entry is “not failed”.

Regarding “MIRFEIHGENLTITDAIRNYIEEKIGKLERYFNDVPNATAHVKVKTYQNSATKIEVTIPLKKVTLRAEERNDDLYAGIDLINNKLERQVRKYKTRVNRRNRNRGEQEAFASLPEEKEAVEIQNDENEADNEIEIIRAKNFSLKPMDSEEAVLQMDLLGHDFFIFTDRETDGTSIVYKRKDGKYGLIETTELEHHHHHH”, the protein production entry is on record as “failed”.

Consider “MIRNPKIYIIILNYNAYEDTLECVKSIGNIDYDNYELVLVDNSSTDDSYVKLKESLPSYNIIKSKENLGYANGNNIGIKYALENGADYICILNNDVVVEKDFLNKLVDKIIEKEDVGIVGSCICDYYRREIIQGMGAHINLYFAAARRYFKGKNYNEIEKKDIFVDYLEGACFLVKSEVFEKIGLIPENYFLFFEETEFCTRAINAGYKIMCIYESKVYHKGSATINKFGSLSYAYLNRNRVIFVRRNSKWYQKIIFAIYIFIEAFGRIVIRKEPLTLFKYILGGFKSNKESIDVIDVKSYVKLEHHHHHH”, for which the protein production result is “failed”.

As to “MIRQRSVIAKRAYIDEGVYIGNVVRIGEESMIHRRSRIGSGARIGGSVCIGVYCRIDGSVRIGQHADIGEWVNIDGHARIGNFARIGEWSRIGGRANIAAHVVLEKQSIIHSETCIQDASKLEHHHHHH”, the protein production result is “failed”.

On to “MIRRALLIASLAALAGCAGLDAIQNAYQGIQDYFTGKDNAEPPAPLAEITPQVKADKLWMAEIGDGYDDQGINLGPAVDDSRVFAAERHGTVQAFNRLTGEKLWSVDHEMDLSAGPVFDDGELFLATAEGAVIVLNAADGALVWKSTLASEILSVPAVADDVVVVRGTNGHLTGLDRKSGATLWYFERHAPPLAIRSRGAPIIAGDLVIDGFGGGKVSAIQLKEGRLDWEANVSLPHGRSEIERLVDLSATPVVRNDVVFVSGYQGGTASLGLNTGEVQWKRESISSPAGMTADRRELYVTDANADLWQLAIRNGEDQWKQTELHQRRLTAPALVKDYLVVGDFEGYLHVLNKEDGRIVGRVQVTDAPIEYPPVVYGDIVYVYATDGTLAAITVD”, for which the protein production result is listed as “failed”.

Values taken from a protein production outcome set (Wang et al. 2014).
